Data from article PMC3584020.

Molecular target: LexA-PRAME, P78395
Assay: yeast two hybrid
Conditions: chain shown with the change; LexA-PRAME (1-509); β-galactosidase activity normalised to amount of protein in the extracts; parent: est. 160; read off a plot

Chain of LexA-PRAME, P78395 (P78395 whole entry): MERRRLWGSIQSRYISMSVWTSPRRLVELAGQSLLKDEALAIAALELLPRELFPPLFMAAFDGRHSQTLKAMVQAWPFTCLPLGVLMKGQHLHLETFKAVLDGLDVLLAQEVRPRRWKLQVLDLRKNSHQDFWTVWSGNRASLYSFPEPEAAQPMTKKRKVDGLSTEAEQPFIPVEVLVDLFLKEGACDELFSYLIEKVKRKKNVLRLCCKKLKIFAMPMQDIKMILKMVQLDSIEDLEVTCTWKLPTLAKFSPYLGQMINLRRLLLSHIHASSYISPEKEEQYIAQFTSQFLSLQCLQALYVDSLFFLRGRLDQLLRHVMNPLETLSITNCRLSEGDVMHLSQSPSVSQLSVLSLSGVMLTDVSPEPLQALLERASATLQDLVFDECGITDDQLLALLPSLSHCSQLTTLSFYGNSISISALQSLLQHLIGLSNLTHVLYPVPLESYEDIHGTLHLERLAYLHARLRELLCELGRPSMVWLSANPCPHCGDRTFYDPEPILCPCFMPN

response (Units β-Galactosidase): 5
B1: GAL4 AD-fused C. elegans ELC (wELC) L47D; L49D; Y88D; Y91D (protein)
chain: MADQNNAIQCDQDAAQPKQYGGIEGPTSQYVKLVSSDDHEFIIKREDADTSGTIRAMLSGPGVYAENESNVVYFREIPSHVLQKVCQDFADKVRYTHAATEIPEFPIPPDVALELLMAANFLDC
